Assay results published in patent US10058586B2, “Use of human small leucine zipper protein in adipocyte differentiation procedure” (Korea University Research and Business Foundation, priority 2013, dated 2018).

System: HDAC3
Test: GST pull-down of GST-HDAC3 and Flag-sLZIP in 293T cells
Type: binding
Protocol: 293T cells were obtained and washed with cold PBS. The cells were re-suspended in an IP lysis buffer [25 mM of Tris-HCl (pH 7.4), 150 mM of NaCl, 1 mM of EDTA, 1% NP-40 and 5% glycerol, and a protease inhibitor]. A suspension was centrifuged at 16,000×g for 20 minutes at 4° C. Supernatants were collected and incubated with 0.5 μg of appropriate antibodies and 25 μl of protein A/G-agarose or a GST Sepharose 4B bead for 24 hours at 4° C. A protein complex was centrifuged at 1,000×g with a cold IP lysis buffer for 1 minute and washed five times. The final pellet was re-suspended in 50 μl of an SDS-sample buffer containing 5% β-mercaptoethanol and heated for 10 minutes at 100° C. […] Co-precipitated proteins were detected according to western blotting using specific antibodies.
For this purpose, 293T cells were transiently transfected with PPARγ2 (0.5 μg), (3-galactosidase (0.1 μg), FABP4-Luc reporter genes (0.2 μg) and sLZIP (0.1 μg). After the transfection, the cells were stimulated with or without 10 nM of RZD and 10 nM of TSA (FIG. 4A). A promoter activity was measured according to luciferase analysis. In the 293T cells, FABP4-Luc reporter genes, sLZIP, PPAR, β-galactosidase, and 100 nM of si-RNAs and HDAC1, 2, 3 and 8 for a control group were expressed. After the transfection, the cells were stimulated with or without 10 nM of RZD, and a promoter activity was measured (FIG. 4B). […]

B1: sLZIP: human small leucine-zipper protein, isoform of LZIP, 354 amino acids, no transmembrane domain; GenBank FJ263669, SEQ ID NO: 1 (protein, listed as Homo sapiens)
chain: MELELDAGDQDLLAFLLEESGDLGTAPDEAVRAPLDWALPLSEVPSDWEVDDLLCSLLSPPASLNILSSSNPCLVHHDHTYSLPRETVSMDLESESCRKEGTQMTPQHMEELAEQEIARLVLTDEEKSLLEKEGLILPETLPLTKTEEQILKRVRRKIRNKRSAQESRRKKKVYVGGLESRVLKYTAQNMELQNKVQLLEEQNLSLLDQLRKLQAMVIEISNKTSSSSMYSSDTRGSLPAEHGVLSRQLRALPSEDPYQLELPALQSEVPKDSTHQWLDGSDCVLQAPGNTSCLLHYMPQAPSAEPPLEWPFPDLFSEPLCRGPILPLQANLTRKGGWLPTGSPSVILQDRYSG
interaction with HDAC3 (GST pull-down) (10 nM RZD for 24 hours): HDAC3 was remained as being interacted with sLZIP
interaction with HDAC3 (GST pull-down) (no RZD): interacted with HDAC3 in a PPARγ2 corepressor complex
